# T1: His-tagged Pf41 (Plasmodium falciparum, UniProt Q8I1Y0 21-368)
# T1 construct: Pf41, 6-cysteine protein of Plasmodium falciparum, residues K21-S368 (domains D1 and D2); The form loaded on Ni-NTA sensors for BLI; a TEV site stands between the His8 tag and Pf41; also called immobilized Pf41; source: Sf21 insect cells (baculovirus), purified following the protocol of Pf12p with some modifications; not shown: His8, N-terminal, kept
# T1 sequence: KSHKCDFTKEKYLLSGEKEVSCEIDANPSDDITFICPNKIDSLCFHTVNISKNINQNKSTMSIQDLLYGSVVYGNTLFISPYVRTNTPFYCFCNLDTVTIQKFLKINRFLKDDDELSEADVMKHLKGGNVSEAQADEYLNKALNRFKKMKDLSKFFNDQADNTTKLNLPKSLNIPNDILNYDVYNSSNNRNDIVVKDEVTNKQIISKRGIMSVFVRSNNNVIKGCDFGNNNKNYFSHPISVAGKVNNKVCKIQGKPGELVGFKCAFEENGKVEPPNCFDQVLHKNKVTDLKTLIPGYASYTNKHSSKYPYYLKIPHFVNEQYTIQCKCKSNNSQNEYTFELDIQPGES
# Assays:
# Pf12 D1D2 = biological target: T2, Pf12 D1D2 (Plasmodium falciparum, UniProt C6KSX0); test: ELISA; MaxiSorp wells coated with 65 nM recombinant protein (Pf12p D1D2, Pf12p D2, Pf12 or Pf41) in PBS; 65 nM nanobody, 1 h at RT; bound nanobody detected with mouse anti-His and HRP-conjugated anti-mouse; duplicates; conditions: both partners purified
# T2 construct: Pf12, 6-cysteine protein of Plasmodium falciparum, residues N28-S304 (domains D1 and D2); Called untagged for the BLI; also called untagged Pf12 D1D2; recombinant Pf12; source: Sf21 insect cells (baculovirus), purified following the protocol of Pf12p with some modifications; not shown: His8, N-terminal, cleaved
# Pf12p D2 = biological target: T3, Pf12p D2 (Plasmodium falciparum (3D7 entry …, UniProt C6KSX1)); test: as above; conditions: both partners purified
# T3 construct: Pf12p, 6-cysteine protein of Plasmodium falciparum, amino acids N168-S341: the C-terminal domain D2 only; Same vector and protocol as Pf12p D1D2; source: Sf21 insect cells (baculovirus, secreted), purified (Ni-NTA, TEV cleavage, SEC); not shown: His8, N-terminal, cleaved
# Pf41 D1D2 = biological target: T4, Pf41 D1D2 (Plasmodium falciparum, UniProt Q8I1Y0); test: as above; conditions: both partners purified
# T4 construct: Pf41, 6-cysteine protein of Plasmodium falciparum, residues K21-S368 (domains D1 and D2); The Pf41 of the ELISA and of the SEC study; also called recombinant Pf41; source: Sf21 insect cells (baculovirus), purified following the protocol of Pf12p with some modifications
# Pf12p D1D2 [1] = biological target: T5, Pf12p D1D2 (Plasmodium falciparum, UniProt C6KSX1); test: far-Western, overlay or dot blot; purified Pf12p D1D2 run on 4-12% Bis-Tris SDS-PAGE under reduced and non-reduced conditions, blotted on PVDF, probed with 0.5 ug/ml nanobody, detected with HRP-conjugated goat anti-llama IgG; conditions: both partners purified
# T5 construct: also called recombinant Pf12p; untagged Pf12p D1D2; source: Sf21 insect cells (baculovirus, secreted), purified (Ni-NTA, TEV cleavage, SEC); not shown: His8, N-terminal, cleaved
# Pf12p D1D2 [2] = biological target: T5, Pf12p D1D2; test: ELISA; MaxiSorp wells coated with 65 nM recombinant protein (Pf12p D1D2, Pf12p D2, Pf12 or Pf41) in PBS; 65 nM nanobody, 1 h at RT; bound nanobody detected with mouse anti-His and HRP-conjugated anti-mouse; duplicates; conditions: both partners purified
# Pf12p D1D2 [3] = biological target: T5, Pf12p D1D2; test: BLI; Octet RED96e; nanobodies (5 ug/ml) loaded on Ni-NTA sensors; untagged Pf12p D1D2 6-200 nM in solution (13-400 nM for A10); PBS pH 7.4, 0.1% BSA, 0.05% Tween-20, 25 C; global 1:1 fit; mean of three experiments; conditions: both partners purified
# [4] = biological target: Nine out of 10 nanobodies (alpaca); test: as above
# His-tagged Pf41 = biological target: T1, His-tagged Pf41; test: BLI; His-tagged Pf41 (10 or 20 ug/ml) loaded on Ni-NTA sensors; untagged Pf12 D1D2 or untagged Pf12p D1D2 in solution, 16-500 nM or 31-1000 nM; PBS pH 7.4, 0.1% BSA, 0.05% Tween-20, 25 C; 1:1 fit; conditions: both partners purified
binder,measurement,setting,value
"nanobody B2 (VHH, From a phage library (pMES4 phagemid) of an alpaca immunized with Pf12p D1D2; source: E. coli WK6, periplasmic extract, purified (HisTrap, SEC)) VHH: QVQLQESGGGLVQPGGSLRLSCAASGSAFSRVAMGWYRQAPGKLREYVADITRGGTTDYADSVKGRFTISRDNAKNTIYLQMDSLKPEDTAVYYCNLVPPIRGGYWGQGTQVTVSS",binding result,Pf12 D1D2,no binding (tested: 65 nM)
same,binding result,Pf12p D2,binds
same,binding result,Pf41 D1D2,no binding (tested: 65 nM)
same,binding result,Pf12p D1D2 [1],binds
"nanobody C12 (VHH, From a phage library (pMES4 phagemid) of an alpaca immunized with Pf12p D1D2; source: E. coli WK6, periplasmic extract, purified (HisTrap, SEC)) VHH: QVQLQESGGGLVQPGGSLRLSCAASGSAFSRVAMGWYRQAPGKLREYVADITRGGTTDYADSVKGRFTISRDNAKNTVFLQMDSLKPEDTAVYYCNSVPPIRGGYWGQGTQVTVSS",binding result,Pf12 D1D2,no binding (tested: 65 nM)
same,binding result,Pf12p D2,binds
same,binding result,Pf41 D1D2,no binding (tested: 65 nM)
same,binding result,Pf12p D1D2 [1],binds
"nanobody H7 (VHH, From a phage library (pMES4 phagemid) of an alpaca immunized with Pf12p D1D2; source: E. coli WK6, periplasmic extract, purified (HisTrap, SEC)) VHH: QVQLQESGGGLVQAGGSLRLSCAASGRTSSSYAVAWFRQAPGKERQFVATIGYDGVTSYYEDSVEGRFTISRDNAKSMVYLQMNSLKPEDTAVYYCGRDRVPGHTWLARPSQADFGSWGQGTQVTVSS",binding result,Pf12 D1D2,no binding (tested: 65 nM)
same,binding result,Pf12p D1D2 [2],binds
same,binding result,Pf12p D2,binds
same,binding result,Pf41 D1D2,no binding (tested: 65 nM)
"nanobody B12 (VHH, From a phage library (pMES4 phagemid) of an alpaca immunized with Pf12p D1D2; source: E. coli WK6, periplasmic extract, purified (HisTrap, SEC)) VHH: QVQLQESGGGLVQAGGSLRLSCAASGRTFSSLTMGWFRQAPGKEREFVAGNAWNWSDGTTYYADSVRGRFTISRDNAKKTVYLQMNSLKPEDTAVYYCACAGDRPRVRVPVNSNDYDYWGQGTQVTVSS",binding result,Pf12p D1D2 [3],binds
same,binding result,Pf12 D1D2,no binding (tested: 65 nM)
same,binding result,Pf41 D1D2,no binding (tested: 65 nM)
"nanobody B9 (VHH, From a phage library (pMES4 phagemid) of an alpaca immunized with Pf12p D1D2; also called Nb B9; source: E. coli WK6, periplasmic extract, purified (HisTrap, SEC)) VHH: QVQLQESGGGLVQAGGSLRLSCTASGRTFSNTVMGWFRQAPGKEREFLAHILWSGGLAYYADSVKGRFTISRDNAKNIVYLQMNSLKPEDTAVYYCAARDFGFGNNYDYWGQGTQVTVSS",binding result,Pf12p D1D2 [3],binds
same,binding result,Pf12 D1D2,no binding (tested: 65 nM)
same,binding result,Pf12p D2,binds
same,binding result,Pf41 D1D2,no binding (tested: 65 nM)
"nanobody A10 (VHH, From a phage library (pMES4 phagemid) of an alpaca immunized with Pf12p D1D2; source: E. coli WK6, periplasmic extract, purified (HisTrap, SEC)) VHH: QVQLQESGGGLVQPGGSLRLSCAASGIIFSSNTMGWYRQAPGKQRELVASFSGETGANYADSVKGRFIIRRDNAKNAVYLLMNSLKPDDTAAYYCHADRFGTDYWGQGTQVTVSS",Kd,Pf12p D1D2 [3],~105 nM
same,binding result,Pf12 D1D2,no binding (tested: 65 nM)
same,binding result,Pf41 D1D2,no binding (tested: 65 nM)
Pf12p D1D2 (domain or fragment) NGVCDFSSEGLSLLPEEKLDFSVSRNVDKLSDENNVRHCVHFSKGFEYLRFICPMRKDNYEGIEIRPVECFEYIHIEGREHKLSEILKGSLYEKSINDNIMTRDVFIPPTIYEDMFFECTCDNSLTFKNNMIGIRGIMKIHLKKNILYGCDFDHDEKLMKNKTAFTNFYDKQKILPLIGNNNNDDDNNDDDNNNDNNNNDNNNNNNNNNNNNNNNNNNNITCNVTIKKSQVYLGIICPDGYTLYPNDCFKNVIYDNNIIIPLKKIIPHDILYHQDKNKRITFASFTLNINENPPGFTCYCIKDQTNINNPLIVNFHFS,Kd,[4],3 nM
same,kon,[4],100000 M⁻¹ s⁻¹
"Pf12 D1D2 (domain or fragment, Plasmodium falciparum, UniProt C6KSX0 28-304, looked up, Pf12, 6-cysteine protein of Plasmodium falciparum, residues N28-S304 (domains D1 and D2); Called untagged for the BLI; also called untagged Pf12 D1D2; recombinant Pf12; source: Sf21 insect cells (baculovirus), purified following the protocol of Pf12p with some modifications; not shown: His8, N-terminal, cleaved) NLTCDFNDVYKLEFHPNQQTSVTKLCNLTPNVLEKVTIKCGSDKLNYNLYPPTCFEEVYASRNMMHLKKIKEFVIGSSMFMRRSLTPNKINEVSFRIPPNMMPEKPIYCFCENKKTITINGSNGNPSSKKDIINRGIVEIIIPSLNEKVKGCDFTTSESTIFSKGYSINEISNKSSNNQQDIVCTVKAHANDLIGFKCPSNYSVEPHDCFVSAFNLSGKNENLENKLKLTNIIMDHYNNTFYSRLPSLISDNWKFFCVCSKDNEKKLVFTVEASISS",Kd,His-tagged Pf41,144 ± 22.6 nM
"nanobody C4 (VHH, From a phage library (pMES4 phagemid) of an alpaca immunized with Pf12p D1D2; source: E. coli WK6, periplasmic extract, purified (HisTrap, SEC)) VHH: QVQLQESGGGLVQPGESLRLSCAASTSIFTVYTMGWYRQAPGKLREWVADVTVGDNRDYVDSVKGRFTISRDNATNTVYLQMNNVKPEDTAVYYCNRVPPGPSGSWGQGTQVTVSS",binding result,Pf12p D1D2 [3],binds
same,binding result,Pf12 D1D2,no binding (tested: 65 nM)
same,binding result,Pf12p D2,binds
same,binding result,Pf41 D1D2,no binding (tested: 65 nM)
"nanobody F7 (VHH, From a phage library (pMES4 phagemid) of an alpaca immunized with Pf12p D1D2; source: E. coli WK6, periplasmic extract, purified (HisTrap, SEC)) VHH: QVQLQESGGGLVQPGGSLRLSCAASGSAFSRVAMGWYRQAPGKLREYVADITYGGATDYADSVKGRFTISRDNAKNTIYLQMDSLKPEDTAVYYCNLVPPIGGYWGQGTQVTVSS",binding result,Pf12 D1D2,no binding (tested: 65 nM)
same,binding result,Pf12p D2,binds
same,binding result,Pf41 D1D2,no binding (tested: 65 nM)
same,binding result,Pf12p D1D2 [1],binds
"nanobody G6 (VHH, From a phage library (pMES4 phagemid) of an alpaca immunized with Pf12p D1D2; source: E. coli WK6, periplasmic extract, purified (HisTrap, SEC)) VHH: QVQLQESGGGLVQPGGSLRLSCEVSGSIFSIDAMAWYRQAPGKQRELVAAILSGGSTNYADSVKGRFAISRDNAKNTGYLQMNSLKPEDTAVYYCNAEGRVSGWGPTEYDYWGQGTQVTVSS",binding result,Pf12p D1D2 [3],binds
same,binding result,Pf12 D1D2,no binding (tested: 65 nM)
same,binding result,Pf12p D2,binds
same,binding result,Pf41 D1D2,no binding (tested: 65 nM)
"nanobody D9 (VHH, From a phage library (pMES4 phagemid) of an alpaca immunized with Pf12p D1D2; source: E. coli WK6, periplasmic extract, purified (HisTrap, SEC)) VHH: QVQLQESGGGLVQPGGSLRLSCAASGIIFSSHVMGWYRQAPGKQRELVASFSGDTGAKYADSVKGRFIIRRENAKNMVTLYLQMNSLKPEDTAAYYCHVDRFGTEYWGQGTQVTVSS",binding result,Pf12p D1D2 [3],binds
same,binding result,Pf12 D1D2,no binding (tested: 65 nM)
same,binding result,Pf41 D1D2,no binding (tested: 65 nM)

# From PMC7886318, “Nanobody generation and structural characterization of Plasmodium falciparum 6-cysteine protein Pf12p” (Biochemical Journal, 2021)
